The text below walks through data of article PMC4441422.

Assay [1] addresses T1, full-length catalytic domain of human N-myristoyltransferase 1 (hNMT1s) (human) (UniProt P30419).
T1 sequence: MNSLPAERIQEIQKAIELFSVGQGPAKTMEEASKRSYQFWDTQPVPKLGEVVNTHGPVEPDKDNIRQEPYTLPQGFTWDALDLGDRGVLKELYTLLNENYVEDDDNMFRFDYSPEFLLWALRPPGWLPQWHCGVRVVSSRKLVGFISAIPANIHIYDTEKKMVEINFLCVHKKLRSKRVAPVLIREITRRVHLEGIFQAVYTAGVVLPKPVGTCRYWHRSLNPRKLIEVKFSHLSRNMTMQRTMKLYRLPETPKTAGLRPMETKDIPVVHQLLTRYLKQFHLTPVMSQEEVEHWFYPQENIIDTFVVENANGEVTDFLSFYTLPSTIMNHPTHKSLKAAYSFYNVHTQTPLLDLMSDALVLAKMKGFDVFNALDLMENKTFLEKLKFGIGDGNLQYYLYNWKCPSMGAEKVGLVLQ

Assay [2] has as its target T2, truncation mutant of hNMT1s devoid of 28 N-terminal amino acids (Δ28-hNMT1s) (human) (UniProt P30419).
T2 sequence: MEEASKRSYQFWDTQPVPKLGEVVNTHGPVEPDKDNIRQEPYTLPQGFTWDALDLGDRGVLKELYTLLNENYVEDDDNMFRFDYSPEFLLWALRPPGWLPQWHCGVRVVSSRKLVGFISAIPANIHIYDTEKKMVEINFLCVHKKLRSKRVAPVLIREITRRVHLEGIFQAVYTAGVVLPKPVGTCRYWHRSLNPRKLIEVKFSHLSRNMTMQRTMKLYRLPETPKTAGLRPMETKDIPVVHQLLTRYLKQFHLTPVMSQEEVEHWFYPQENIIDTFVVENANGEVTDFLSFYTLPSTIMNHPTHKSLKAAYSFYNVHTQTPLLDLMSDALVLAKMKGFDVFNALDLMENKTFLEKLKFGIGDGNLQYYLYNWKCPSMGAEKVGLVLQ

As for GSNKSKPK [peptide substrate corresponding to the N-terminal sequence of pp60src (amino acids 2-9)], the K m (μM) for the peptide in the myristoylation reaction (fluorescence assay of CoA release with CPM; peptide 1-50 μM, MYA 30 μM, 5 nM enzyme, 25°C) turned out to be 25.7 µM in assay [1] and 14.4 µM in assay [2].
